According to the nanobody polyreactivity screen of Harvey et al. (2022):

Experiment: yeast display, Sf9 membrane polyspecificity reagent, FACS + sequencing; frameworks hold sequencing errors
Outline: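 Sorting gates, low and high (top ~1%), were placed on anti-HA fluorescence to track expression and on streptavidin fluorescence to track reagent binding. A clone's polyreactivity label is taken from the gate it came out of. The reagent was 10% biotinylated, detergent-solubilized Sf9 membrane, applied for 1 hour at 4 °C to galactose-induced yeast display cells.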

Sequence	polyreactivity (PSR sort gate)
QVQLVESGGGLVQAGGSLRLSCAASGFTFLTYAMGWYRQAPGKERELVAAIDSGDSTKYADSVKGRFTISLDNAKNTVYLQMNSLKPEDTAVYYCNASRRYHVRAPYDYWGQGTQVTVSS	low polyreactivity
QVQLVESGGGLVQAGGSLRLSCAASGFTFLYYAMGWYRHAPGKERELVAAITTGSSTNYADSVKGRFTISRDNAKNTVYLQMNSLKPEDTAVYYCAAEYYYRVWYGHYYEYDYWGQGTQVTVSS	high polyreactivity
QVQLVESGGGLVQAGGSLRLSCAASGFTFLYYDMGWYRPAPGKERELVAAITSSGTSTYYADSVKGRFTISRDNAKNSVYLQMNSLKPEDTAVYYCAVLYTYAGRHRYGYWGQGTQVTVSS	high polyreactivity
QVQLVESGGGLVQAGGSLRLSCAASGFTFNDYAMGRSRQAPGKERELVAAIDWSGGRTYYADSVKGRFTISRDYEKNTVYLQMKSLKPEDTAVYYCAAVLYSRLYWYSLDYWGQGTQVTVSS	low polyreactivity
QVQLVESGGGLVQAGGSLRLSCAASGFTFNFYAMGWYRQAPGKERELVASITSSGARTYYADSVKGRFTISRDNAKNTVYLQMNSLKPEDTAVYYCAARVYRYSASRAYDYWGQGTQVTVSS	high polyreactivity
QVQLVESGGGLVQAGGSLRLSCAASGFTFNGNAMGWYRQAPGKERELVAAISYSGGSTYYADSVKGRFTISRDNAKNTVYLQMNSLKPVDTAVFYCAADRTAYSVRAFTKDHSGHDYCGQGTQVTVSS	low polyreactivity
QVQLVESGGGLVQAGGSLRLSCAASGFTFNKNPMGWYRQAPGKEREMVAAITSSGGSTYYADSVQGRFTISRDNAKNTVYLQMNSLKPEDTAVYYCAAYPQAFMADYEYWGQGTQVTVSS	low polyreactivity
QVQLVESGGGLVQAGGSLRLSCAASGFTFNKYAMGWYRQAPGKERELVAAISSSGGSTRYADSVKGRFTISRDNAKNTVYLQMNSLKPEDTADYYCAVYVTSDSGWWLYDYWGQGTQVTVSS	high polyreactivity
QVQLVESGGGLVQAGGSLRLSCAASGFTFNKYAMGWYRQAPGTERELVAAISSRGGSPYYADSVKGRFTISRDNAKNTVYLQMNSLKPEDTAVYYCAVYTIGYLAWYQKFDYWGQGTQVTVSS	high polyreactivity
QVQLVESGGGLVQAGGSLRLSCAASGFTFNRYDMGWYRQAPGKERELVAAITGGSGSTYYADSVKGRFTISRDNAKNTVYLQMHSLKPEDTAVYDCAARRYRLSTPEFNYWGQGTQVTVSS	high polyreactivity
QVQLVESGGGLVQAGGSLRLSCAASGFTFNWYTMGWYRQAPGKERELVAAIRGSGSRTYYADSVKGRFTISRDNAKNTVYLQMNSLKPEDTAVYYCATDYGLYSTWGRYYRYRYDYWGQGTQVTVSS	high polyreactivity
QVQLVESGGGLVQAGGSLRLSCAASGFTFNYNAMGWYRQAPGKERELVAAISRSGGRTYYADSVKGRFTISRDNAKNTVYLQMNSLKPEDTAVYYCAADSRTNGYDYWGQGTQVTVSS	high polyreactivity
QVQLVESGGGLVQAGGSLRLSCAASGFTFNYNTMGWYRPAPGKERELVARISRSGGRTYYADSVKGRFTISRDNAKNTVYLQMNSLKPEDTAVYYCNTDYYGVRHRYDYWGQGTQVTVSS	high polyreactivity
QVQLVESGGGLVQAGGSLRLSCAASGFTFNYYAMGWYRQAPGKEREFVAAISYGGGDTYYADSVKGRFTISRDNAKNTVYLQMNSLKPEDTAVYYCNARFRKRAYRYDYWGQGTLVTVSS	high polyreactivity
QVQLVESGGGLVQAGGSLRLSCAASGFTFNYYAMGWYRQATGKERELVAAIDSGGNTYYADSVKGRFTISRDNAKNNVYLLLNSLKPEDTAVYYCDAYSDYQYDYWGQGTQVTVSS	low polyreactivity
QVQLVESGGGLVQAGGSLRLSCAASGFTFPANAMGWYRQAPGKERELVATITWSGGNTYYADSVKGRFTISRDNAKNTVYLQMNSLKPEDTAVYYCAKDYDPYHEQQSSEHDDYWGQGTQVTVSS	low polyreactivity
QVQLVESGGGLVQAGGSLRLSCAASGFTFPFYAMGWYRQAPGKERELVAAITSRGGSTYYADSVKGRFTISRDNAKNTVYLQMNSLKPEDTAVYYCAADESGADYYYWGQGTQVTVSS	high polyreactivity
QVQLVESGGGLVQAGGSLRLSCAASGFTFPFYTMGWYRQAPGKERELVAAITFSGDSTYYADSVKGRFTISRDNAKNTVYLQMNSLKPEDTAVYYCAVASYWGPEYDYWGQGTQVTVSS	low polyreactivity
QVQLVESGGGLVQAGGSLRLSCAASGFTFPGYAMGWYRQAPGKERELVAAISYSSGSTYYADSVKGRFTISRDNAKNTVYLQMNSLKPEDTAVYYCAAYFSPVGFQYDYWGQGTQVTVSS	high polyreactivity
QVQLVESGGGLVQAGGSLRLSCAASGFTFPLYAMGWYRQAPGKERELVAVISRSGGSTYYADSVKGRFTISRDNAKNTVYLQMNSLKPEDTAVYYCAARLVPRSPERGNYDYWGQGTQVTVSS	high polyreactivity
QVQLVESGGGLVQAGGSLRLSCAASGFTFPQNAKGWYRQAPGKERELVAAITNGGTTYYADSVKGRFTISRDNAKNTVYLQMNSLKPEDTAVYYCAAYTYRYGSFKYGYWGQGTQVTVSS	low polyreactivity
QVQLVESGGGLVQAGGSLRLSCAASGFTFPRYAMGWYRQAPGKERELVAAITVGGGRTYYADSVKGRFTISRDNANNTVYLQMNSLKPEDTAVYYFAADSHASTYDYWGQGTQVTVSS	low polyreactivity

Sequence	polyreactivity (PSR sort gate)
QVQLVESGGGLVQAGGSLRLSCAASGFTFPSNAMGWYRQAPGKERELYAAISSTDSTNYADSVKGRFTISRDNAKNTFYLQMNSLKPEDTAVYYCAKRYPRYRYNTRGNDYWGQGSQVTVSS	low polyreactivity
QVQLVESGGGLVQAGGSLRLSCAASGFTFPVNAMGWYRQAPGKERELVAAITSGGRTNYADSVKGRFTISRDNAKNTVYLQMNSLKPEDTAVYYCAAKFGYYWNSRTSGYWGQGTQVTVSS	high polyreactivity
QVQLVESGGGLVQAGGSLRLSCAASGFTFPVYAMGWYRPAPGIEREFVAASTKSGGGTYYADSVKGRCTLSRDNAKKTVYGQMNSLKPEETAVYYCAKASRRFLTLGSDYWGQGTQVTVSS	high polyreactivity
QVQLVESGGGLVQAGGSLRLSCAASGFTFPYNAMGWYRPAPGTARELVAGISYGGGRTYYADSVKGRFTFSRDNAKNTVYLQMNSLKPEDTAVYYCARRPGAWKYVYTGDYWGQGTQVTVSS	high polyreactivity
QVQLVESGGGLVQAGGSLRLSCAASGFTFPYNAMGWYRQAPGKERELVAAISRGGGRTYYADSVKGRFTISRDNAKNTVYLQMNSLKPEDTAVYYCAKAPGQDTPYPYGYWGQGTQVTVSS	high polyreactivity
QVQLVESGGGLVQAGGSLRLSCAASGFTFPYNAMGWYRQPPGKERELVAAISRGAGRTYYADSVKGRFTISRDNAKNTVYLQMNSLKQEDTAVYYCAKAPGQDTPYPYGYWGQGTQVTVSS	high polyreactivity
QVQLVESGGGLVQAGGSLRLSCAASGFTFPYYAMGWYRQAPGKERELVARISSGGSTNYADSVKGRFTISRDNAMNTVYLEMNSLKPEDTAVYYCNKGWYYRPRFYSSSDYWGQGTQVTVSS	high polyreactivity
QVQLVESGGGLVQAGGSLRLSCAASGFTFPYYTMGWYRQAPGKERELVAAINRGGGSTYYADSVKGRFTISRDNAKNTVYLHMNSLKPEDTAVYYCACLRCLFPGRFDYWGQSTQVTVSS	high polyreactivity
QVQLVESGGGLVQAGGSLRLSCAASGFTFPYYTMGWYRQAPGKERELVAAISKSGGSTYYADSVKGRFTISRDNAKNTVYLEMHSLKPEDTAVYYCNARRGSPAPYDYWGQGTQVTVSS	high polyreactivity
QVQLVESGGGLVQAGGSLRLSCAASGFTFQAYAMGWYRQAPGKERELVAAISKSGGSTYYADSVKGRFTISRDNAKNTVYLQMNSLKPEDTAVYYCAARSWERYRAFIYWGQGTQVTVSS	high polyreactivity
QVQLVESGGGLVQAGGSLRLSCAASGFTFQFYAMGWSRPAPGKERELVAAITWSGGSTYYADSVKGRFTISRDNAKNTVYLQMNSLKPEDTAVYYCAKDRRSYLSYIYDYWGQGTQVNVSS	high polyreactivity
QVQLVESGGGLVQAGGSLRLSCAASGFTFQNNVMGWYRQAPGKERELVAAINSSGRTYYADSVKGRFTISRDNAKNTVYLQMNSLKPEDTAVFYCAASRRYRGVNRPGDYWGQGTQVTVSS	high polyreactivity
QVQLVESGGGLVQAGGSLRLSCAASGFTFQNYAMGWYRQAPGKERELVAAIDSRGGRTYYADSVKGRFTISRDNAKNTVYLQMNSLNPEDTAVYYCAGAENKRFGSVGYYYWGQGTQVTVSS	low polyreactivity
QVQLVESGGGLVQAGGSLRLSCAASGFTFQRYTMGWYRQAPGKERELVAAITRSGGRTYYADSVKGRFTISRDNAKNTVYLQMNSLKPEDTAVYYCAVDYRTRGDYWGQGTQVTVSS	high polyreactivity
QVQLVESGGGLVQAGGSLRLSCAASGFTFQWYGMGWYRQAPGKERELVAAITWSGGRTNYADSVKGRFTISRDNAKNTVYLQMNSLKPEDTAVYYCNKVFPRRGGDDNYWGQGTQVTVSS	high polyreactivity
QVQLVESGGGLVQAGGSLRLSCAASGFTFQYSAMGWSRQAPGKERDVVAAIRSNGGSTYYADSVKGRFTISRDNAKNTVYLQMNSLKPEDTAVYYSAARAYKTYDWGQGTQVTVSS	high polyreactivity
QVQLVESGGGLVQAGGSLRLSCAASGFTFQYYAKGWYRQAPGKERELVAAISSSGGSTFYADSVKGRFTSSRDNAKNTVYLQMNSLKPEDTAVYYCATYTSPGYYYWGQGTQVTVSS	high polyreactivity
QVQLVESGGGLVQAGGSLRLSCAASGFTFQYYAMGWYRQAPGKERELVAAISGTSGSTRYADSVKGRFTISRDNSKNTVYLQMNSLKPEDSAVYYCAAGSRGKVPVGLRYGYYYWGQGTQVTVSS	high polyreactivity
QVQLVESGGGLVQAGGSLRLSCAASGFTFQYYAMGWYRQAPGKERELVAAISWSGDSTYYADSVKGRFTISRDNAKNTVYLQMNSLKPEDTAVYYCAVYYTRGYDYWGQGTQVTVSS	high polyreactivity
QVQLVESGGGLVQAGGSLRLSCAASGFTFQYYAMGWYRQAPGKERELVATITTSGGNTYYADSVKGRFTISRDNAKNTVYLQMNSLKPEDTAVYYCAARNARYVHTMEYWGQGTQVTVSS	high polyreactivity
QVQLVESGGGLVQAGGSLRLSCAASGFTFQYYAMGWYRQAPGKERELVPSISWSGGSTYYADSVKGRFTISRDHAKNTVYFQMNSLKPEDTAVYYCADSVTYLFCSARFSAYGYWGQGTQVTVSS	high polyreactivity
